Patent US20230272045A1 (MONASH UNIVERSITY, published 2023)

Experiments:
Assay in all cases: ELISA; ECM protein coated at 100 nM, BMP-2 0.1 to 100 nM
human plasma fibronectin = target: T1, human plasma fibronectin (human, UniProt P02751-8 32-2296, limits assumed)
T1 construct: Coated on ELISA plates at 100 nM; also called Fn
Protocol: (§1) ELISA plates (Greiner bio-one medium binding, Thermo Fisher Scientific) were coated with 100 nM of ECM proteins in […] of PBS for 1 h at 37° C. Then, wells were washed with […] of PBS-T (0.05% Tween-20) and blocked with […] of BSA solution (1% in PBS-T) for 1 h at room temperature. Wells without ECM protein coating, and wells blocked only with the BSA solution were used as controls for non-specific binding. ECM coated wells and control wells were further incubated 1 h at room temperature with solutions of BMP-2 (Peprotech), murine PDGF-BB (Peprotech), IL-1Ra (R&D Systems), or PIGF₁₂₃₋₁₄₁-fused proteins at concentrations ranging from 0 to 100 nM ([…] in PBS-T containing 0.1% BSA prepared in protein-low bind tubes (PROKEEP, Watson bio lab). Then, wells were washed 3 times with […] of PBS-T and incubated for 1 h with […] of biotinylated polyclonal detection antibodies in PBS-T with 0.1% BSA. Detection antibodies used were from BMP-2 DuoSet ELISA (R&D Systems, DY355) for BMP-2, PDGF-BB DuoSet ELISA (R&D Systems, DY8464) for PDGF-BB and IL-1Ra/IL-1F3
(§2) DuoSet ELISA (R&D Systems, DY480) for IL-1Ra. Wells were further washed 3 times with PBS-T and incubated for 20 min with […] of streptavidin-horseradish peroxidase (HRP). After three washes with PBS-T, TMB (ThermoFisher) was added followed by […] of stop solution (0.16M sulfuric acid). Concentrations of detection antibodies and streptavidin-HRP were used according to the manufacturer's instructions. To calculate the dissociation constants (KD) specific-binding values were fitted with a one site specific binding model using A450 nm=Bmax*[growth factors or IL-1Ra variants]/(KD+[growth factors or IL-1Ra variants]).

human vitronectin = target: T2, human vitronectin (human, UniProt P04004 20-478)
T2 construct: Coated on ELISA plates at 100 nM; also called Vn
T2 sequence (P04004 20-478 limits assumed): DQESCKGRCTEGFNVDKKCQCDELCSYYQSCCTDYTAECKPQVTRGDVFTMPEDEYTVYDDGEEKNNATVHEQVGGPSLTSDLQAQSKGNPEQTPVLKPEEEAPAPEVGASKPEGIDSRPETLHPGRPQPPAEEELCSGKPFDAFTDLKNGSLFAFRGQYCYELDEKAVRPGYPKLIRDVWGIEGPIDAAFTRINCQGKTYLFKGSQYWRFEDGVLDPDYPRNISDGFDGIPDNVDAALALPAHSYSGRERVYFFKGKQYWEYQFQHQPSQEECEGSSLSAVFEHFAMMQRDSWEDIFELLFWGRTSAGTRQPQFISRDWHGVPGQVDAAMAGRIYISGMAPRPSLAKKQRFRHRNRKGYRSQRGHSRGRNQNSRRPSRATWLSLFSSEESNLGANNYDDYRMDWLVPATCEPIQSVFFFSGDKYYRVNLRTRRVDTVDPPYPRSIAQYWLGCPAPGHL
Protocol: as §1, §2

human fibrinogen = target: T3, human fibrinogen (human, UniProt P02671 20-644; P02675 31-491; P02679 27-437, limits assumed)
T3 construct: Coated on ELISA plates at 100 nM; also called Fg
T3 sequence (looked up) 1: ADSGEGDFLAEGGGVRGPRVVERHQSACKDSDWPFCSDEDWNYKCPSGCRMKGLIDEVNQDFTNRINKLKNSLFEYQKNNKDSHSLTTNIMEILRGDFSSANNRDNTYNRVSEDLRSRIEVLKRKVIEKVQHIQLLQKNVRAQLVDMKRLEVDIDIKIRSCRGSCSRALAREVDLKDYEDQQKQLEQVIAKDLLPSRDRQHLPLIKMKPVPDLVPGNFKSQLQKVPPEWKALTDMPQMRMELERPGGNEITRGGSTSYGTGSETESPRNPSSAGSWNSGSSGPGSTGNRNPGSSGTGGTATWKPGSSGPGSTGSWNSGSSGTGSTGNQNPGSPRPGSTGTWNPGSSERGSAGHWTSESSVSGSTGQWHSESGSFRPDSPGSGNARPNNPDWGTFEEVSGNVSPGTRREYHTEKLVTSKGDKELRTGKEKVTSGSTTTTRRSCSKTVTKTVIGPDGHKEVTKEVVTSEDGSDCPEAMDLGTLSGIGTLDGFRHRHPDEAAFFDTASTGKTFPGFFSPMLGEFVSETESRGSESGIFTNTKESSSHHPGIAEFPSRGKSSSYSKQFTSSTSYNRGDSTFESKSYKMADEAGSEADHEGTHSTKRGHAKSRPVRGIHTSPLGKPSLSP
T3 sequence (looked up) 2: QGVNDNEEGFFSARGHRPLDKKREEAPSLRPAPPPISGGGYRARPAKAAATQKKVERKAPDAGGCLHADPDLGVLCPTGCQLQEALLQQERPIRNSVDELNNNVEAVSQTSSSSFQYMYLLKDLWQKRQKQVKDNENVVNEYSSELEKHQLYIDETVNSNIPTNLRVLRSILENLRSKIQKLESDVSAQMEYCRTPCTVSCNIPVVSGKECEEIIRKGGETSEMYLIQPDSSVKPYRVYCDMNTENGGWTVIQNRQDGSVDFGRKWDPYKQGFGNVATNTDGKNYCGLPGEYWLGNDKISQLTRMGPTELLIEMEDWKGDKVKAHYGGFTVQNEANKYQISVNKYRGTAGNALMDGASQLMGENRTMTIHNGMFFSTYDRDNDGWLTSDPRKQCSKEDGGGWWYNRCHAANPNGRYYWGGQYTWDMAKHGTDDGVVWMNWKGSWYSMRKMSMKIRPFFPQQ
T3 sequence (looked up) 3: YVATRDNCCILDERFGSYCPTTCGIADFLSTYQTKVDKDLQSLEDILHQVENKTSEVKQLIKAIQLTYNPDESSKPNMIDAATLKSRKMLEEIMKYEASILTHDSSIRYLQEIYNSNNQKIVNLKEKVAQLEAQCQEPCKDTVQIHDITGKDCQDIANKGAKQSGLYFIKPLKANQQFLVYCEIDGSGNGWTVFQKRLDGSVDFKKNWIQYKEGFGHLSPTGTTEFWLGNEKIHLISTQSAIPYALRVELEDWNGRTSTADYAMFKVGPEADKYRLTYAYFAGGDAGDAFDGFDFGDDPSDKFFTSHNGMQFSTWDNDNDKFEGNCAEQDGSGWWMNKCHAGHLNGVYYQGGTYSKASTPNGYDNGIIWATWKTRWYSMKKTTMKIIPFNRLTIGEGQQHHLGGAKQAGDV
Protocol: as §1, §2

Measured: binding result

T1 sequence (P02751 other isoform, or with tags, fused parts or gaps limits assumed): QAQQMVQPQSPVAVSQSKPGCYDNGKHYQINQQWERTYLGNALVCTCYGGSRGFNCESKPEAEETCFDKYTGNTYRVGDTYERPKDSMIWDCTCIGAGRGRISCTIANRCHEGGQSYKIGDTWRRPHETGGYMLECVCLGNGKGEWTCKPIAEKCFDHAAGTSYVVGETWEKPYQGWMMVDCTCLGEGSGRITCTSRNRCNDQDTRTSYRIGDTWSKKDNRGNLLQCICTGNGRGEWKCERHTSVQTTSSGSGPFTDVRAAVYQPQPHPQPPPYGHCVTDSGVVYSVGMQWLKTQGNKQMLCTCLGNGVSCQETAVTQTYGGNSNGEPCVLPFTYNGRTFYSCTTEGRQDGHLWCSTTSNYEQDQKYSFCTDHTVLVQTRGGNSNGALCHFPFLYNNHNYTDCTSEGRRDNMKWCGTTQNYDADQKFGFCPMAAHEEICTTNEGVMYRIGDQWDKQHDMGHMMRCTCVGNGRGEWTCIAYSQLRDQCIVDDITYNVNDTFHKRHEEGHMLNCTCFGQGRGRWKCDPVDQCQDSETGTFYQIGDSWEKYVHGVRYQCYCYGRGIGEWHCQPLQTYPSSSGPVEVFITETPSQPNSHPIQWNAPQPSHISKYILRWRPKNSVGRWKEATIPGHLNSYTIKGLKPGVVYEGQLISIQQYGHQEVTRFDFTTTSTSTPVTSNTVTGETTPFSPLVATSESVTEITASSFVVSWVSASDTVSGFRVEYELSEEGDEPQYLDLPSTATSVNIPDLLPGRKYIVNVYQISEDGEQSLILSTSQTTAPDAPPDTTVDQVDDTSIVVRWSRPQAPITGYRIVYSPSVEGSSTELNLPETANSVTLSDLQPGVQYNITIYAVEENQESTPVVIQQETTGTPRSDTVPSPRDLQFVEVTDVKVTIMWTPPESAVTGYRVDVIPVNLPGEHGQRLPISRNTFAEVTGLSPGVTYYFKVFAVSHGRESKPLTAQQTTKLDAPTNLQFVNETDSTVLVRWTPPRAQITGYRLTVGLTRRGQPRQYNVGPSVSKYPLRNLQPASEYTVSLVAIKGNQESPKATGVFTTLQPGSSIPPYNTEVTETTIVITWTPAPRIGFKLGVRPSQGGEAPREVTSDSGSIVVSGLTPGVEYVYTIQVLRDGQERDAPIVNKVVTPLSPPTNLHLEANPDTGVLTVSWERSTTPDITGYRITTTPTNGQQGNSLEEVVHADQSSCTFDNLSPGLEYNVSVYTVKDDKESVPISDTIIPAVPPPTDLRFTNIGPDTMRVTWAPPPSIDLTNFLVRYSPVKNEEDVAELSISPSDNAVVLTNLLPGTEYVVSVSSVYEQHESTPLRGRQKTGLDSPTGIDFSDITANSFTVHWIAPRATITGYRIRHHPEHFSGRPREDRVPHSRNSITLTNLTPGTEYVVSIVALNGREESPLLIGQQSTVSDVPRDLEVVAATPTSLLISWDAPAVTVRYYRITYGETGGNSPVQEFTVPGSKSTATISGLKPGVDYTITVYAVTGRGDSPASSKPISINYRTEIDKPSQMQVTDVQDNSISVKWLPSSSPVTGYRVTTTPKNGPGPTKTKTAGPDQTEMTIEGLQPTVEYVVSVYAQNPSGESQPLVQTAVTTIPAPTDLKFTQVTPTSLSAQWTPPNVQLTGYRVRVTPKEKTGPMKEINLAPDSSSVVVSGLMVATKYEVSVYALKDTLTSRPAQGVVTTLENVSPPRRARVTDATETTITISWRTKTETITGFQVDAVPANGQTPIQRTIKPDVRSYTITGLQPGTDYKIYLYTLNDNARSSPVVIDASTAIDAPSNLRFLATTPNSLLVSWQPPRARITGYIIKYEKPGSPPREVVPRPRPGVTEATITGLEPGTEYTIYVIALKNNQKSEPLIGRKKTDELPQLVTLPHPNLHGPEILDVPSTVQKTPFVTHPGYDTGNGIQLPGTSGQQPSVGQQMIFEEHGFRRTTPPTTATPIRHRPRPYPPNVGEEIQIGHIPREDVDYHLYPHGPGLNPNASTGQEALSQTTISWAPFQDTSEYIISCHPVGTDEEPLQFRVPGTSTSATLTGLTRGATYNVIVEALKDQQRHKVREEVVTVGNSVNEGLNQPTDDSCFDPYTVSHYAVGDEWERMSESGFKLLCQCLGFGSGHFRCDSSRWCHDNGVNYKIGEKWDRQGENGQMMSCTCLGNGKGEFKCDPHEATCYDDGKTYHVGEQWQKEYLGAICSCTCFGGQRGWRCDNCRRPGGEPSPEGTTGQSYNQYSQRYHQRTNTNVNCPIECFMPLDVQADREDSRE

B1: BMP-2 (bone morphogenetic protein-2, Peprotech) (ligand, murine, UniProt P21274 281-394, looked up)
chain: QAKHKQRKRLKSSCKRHPLYVDFSDVGWNDWIVAPPGYHAFYCHGECPFPLADHLNSTNHAIVQTLVNSVNSKIPKACCVPTELSAISMLYLDENEKVVLKNYQDMVVEGCGCR
notes: also called wild-type BMP-2
binds: all assays above
